Test results taken from PMC9482650, “Quantitative fragmentomics allow affinity mapping of interactomes” (Nature Communications, 2022).

Columns and labels:
DLG4_1, P78352 = assay: holdup assay; design: key: below the threshold = too weak to quantify, mostly under pKd 3.1 to 4
GRID2IP_2, A4D2P6 = assay: holdup assay; design: key: below the threshold = too weak to quantify, mostly under pKd 3.1 to 4
[1] = plain residues with an end cap or a label only (N-terminal biotin on a linker: ado-ado)
[2] = modified: phospho on T at position -2 from the C-terminal residue

Chain of DLG4_1, P78352 (P78352 62-152): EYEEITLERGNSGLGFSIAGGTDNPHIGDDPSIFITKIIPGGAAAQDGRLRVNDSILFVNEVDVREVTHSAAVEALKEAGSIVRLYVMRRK
Chain of GRID2IP_2, A4D2P6 (A4D2P6 272-370): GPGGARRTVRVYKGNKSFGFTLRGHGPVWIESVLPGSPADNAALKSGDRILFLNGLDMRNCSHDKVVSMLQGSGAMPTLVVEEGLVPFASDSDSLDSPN

KKAPTNEFYA [SDC4, P31431] was tested, and the pKd (DLG4_1, P78352; [1]) was “below the threshold” and the pKd (GRID2IP_2, A4D2P6; [1]) was “below the threshold”.

In the case of PPYRHRNTVV [ERBB4, Q15303], the pKd (DLG4_1, P78352; [1]) is reported as 4.88 and the pKd (GRID2IP_2, A4D2P6; [1]) is reported as “below the threshold”.

LRSPRTPSEV [OR10G3, Q8NGC4] was tested, and the pKd (DLG4_1, P78352; [1]) was 3.49 and the pKd (GRID2IP_2, A4D2P6; [1]) was “below the threshold”.

With SARSRLSSNL [HCN2, Q9UL51] the pKd (DLG4_1, P78352; [1]) was “below the threshold” and the pKd (GRID2IP_2, A4D2P6; [1]) was 4.37.

For RRISSLESEV [GRIN2C, Q14957], the pKd (DLG4_1, P78352; [1]) was 4.68 and the pKd (GRID2IP_2, A4D2P6; [1]) was 3.54.

In the case of CLREWCDAFL [BANF1, O75531], the pKd (DLG4_1, P78352; [1]) is reported as “below the threshold” and the pKd (GRID2IP_2, A4D2P6; [1]) is reported as “below the threshold”.

FNSYSLTGYV [CLDN2, P57739] was tested, and the pKd (DLG4_1, P78352; [1]) was 3.51 and the pKd (GRID2IP_2, A4D2P6; [1]) was 3.68.

For RRLPGKETMA [GRIK2, Q13002], the pKd (DLG4_1, P78352; [1]) was “below the threshold” and the pKd (GRID2IP_2, A4D2P6; [1]) was “below the threshold”.

With EKKTLIGIKL [GOT1L1, Q8NHS2] the pKd (DLG4_1, P78352; [1]) was “below the threshold” and the pKd (GRID2IP_2, A4D2P6; [1]) was “below the threshold”.

LGRSTPQSEV [DGKH, Q86XP1] gave a pKd (DLG4_1, P78352; [1]) of 3.85 and a pKd (GRID2IP_2, A4D2P6; [1]) of 4.16.

For IKAIVDLTGL [TRAF2, Q12933], the pKd (DLG4_1, P78352; [1]) was “below the threshold” and the pKd (GRID2IP_2, A4D2P6; [1]) was “below the threshold”.

For RRRESYSTTV [EVI5, O60447], the pKd (DLG4_1, P78352; [1]) was 5.79 and the pKd (GRID2IP_2, A4D2P6; [1]) was 4.34.

With SKPTRRETEV [HPV35-E6_-2P, P27228] the pKd (DLG4_1, P78352; [2]) was “below the threshold” and the pKd (GRID2IP_2, A4D2P6; [2]) was “below the threshold”.

QGPVETESVV [SLC45A4, Q5BKX6] was tested, and the pKd (DLG4_1, P78352; [1]) was 4.33 and the pKd (GRID2IP_2, A4D2P6; [1]) was 3.55.

TKGPRGPTRV [SAPCD1, Q5SSQ6] showed a pKd (DLG4_1, P78352; [1]) of 4.48 and a pKd (GRID2IP_2, A4D2P6; [1]) of 4.58.

For YNNCLEILRV [DCAF7, P61962], the pKd (DLG4_1, P78352; [1]) was “below the threshold” and the pKd (GRID2IP_2, A4D2P6; [1]) was “below the threshold”.

VKPQVSESKL [ACOT8, O14734] was tested, and the pKd (DLG4_1, P78352; [1]) was “below the threshold” and the pKd (GRID2IP_2, A4D2P6; [1]) was 3.55.

In the case of PRAEAEDSFL [PDGFRB, P09619], the pKd (DLG4_1, P78352; [1]) is reported as 3.72 and the pKd (GRID2IP_2, A4D2P6; [1]) is reported as 3.84.

In the case of EALLQMESVA [CAVIN3, Q969G5], the pKd (DLG4_1, P78352; [1]) is reported as “below the threshold” and the pKd (GRID2IP_2, A4D2P6; [1]) is reported as “below the threshold”.

GSGAVEMESV [AQP6, Q13520] was tested, and the pKd (DLG4_1, P78352; [1]) was “below the threshold” and the pKd (GRID2IP_2, A4D2P6; [1]) was “below the threshold”.
